Consider one molecule from PMC4993541 (Cell Cycle, 2016).

The target of the test is FLAG-tagged full-length BRCA2 (human, UniProt P51587 1-3418). Briefly: pull-down.
FLAG-tagged full-length BRCA2, sequence (P51587 whole entry): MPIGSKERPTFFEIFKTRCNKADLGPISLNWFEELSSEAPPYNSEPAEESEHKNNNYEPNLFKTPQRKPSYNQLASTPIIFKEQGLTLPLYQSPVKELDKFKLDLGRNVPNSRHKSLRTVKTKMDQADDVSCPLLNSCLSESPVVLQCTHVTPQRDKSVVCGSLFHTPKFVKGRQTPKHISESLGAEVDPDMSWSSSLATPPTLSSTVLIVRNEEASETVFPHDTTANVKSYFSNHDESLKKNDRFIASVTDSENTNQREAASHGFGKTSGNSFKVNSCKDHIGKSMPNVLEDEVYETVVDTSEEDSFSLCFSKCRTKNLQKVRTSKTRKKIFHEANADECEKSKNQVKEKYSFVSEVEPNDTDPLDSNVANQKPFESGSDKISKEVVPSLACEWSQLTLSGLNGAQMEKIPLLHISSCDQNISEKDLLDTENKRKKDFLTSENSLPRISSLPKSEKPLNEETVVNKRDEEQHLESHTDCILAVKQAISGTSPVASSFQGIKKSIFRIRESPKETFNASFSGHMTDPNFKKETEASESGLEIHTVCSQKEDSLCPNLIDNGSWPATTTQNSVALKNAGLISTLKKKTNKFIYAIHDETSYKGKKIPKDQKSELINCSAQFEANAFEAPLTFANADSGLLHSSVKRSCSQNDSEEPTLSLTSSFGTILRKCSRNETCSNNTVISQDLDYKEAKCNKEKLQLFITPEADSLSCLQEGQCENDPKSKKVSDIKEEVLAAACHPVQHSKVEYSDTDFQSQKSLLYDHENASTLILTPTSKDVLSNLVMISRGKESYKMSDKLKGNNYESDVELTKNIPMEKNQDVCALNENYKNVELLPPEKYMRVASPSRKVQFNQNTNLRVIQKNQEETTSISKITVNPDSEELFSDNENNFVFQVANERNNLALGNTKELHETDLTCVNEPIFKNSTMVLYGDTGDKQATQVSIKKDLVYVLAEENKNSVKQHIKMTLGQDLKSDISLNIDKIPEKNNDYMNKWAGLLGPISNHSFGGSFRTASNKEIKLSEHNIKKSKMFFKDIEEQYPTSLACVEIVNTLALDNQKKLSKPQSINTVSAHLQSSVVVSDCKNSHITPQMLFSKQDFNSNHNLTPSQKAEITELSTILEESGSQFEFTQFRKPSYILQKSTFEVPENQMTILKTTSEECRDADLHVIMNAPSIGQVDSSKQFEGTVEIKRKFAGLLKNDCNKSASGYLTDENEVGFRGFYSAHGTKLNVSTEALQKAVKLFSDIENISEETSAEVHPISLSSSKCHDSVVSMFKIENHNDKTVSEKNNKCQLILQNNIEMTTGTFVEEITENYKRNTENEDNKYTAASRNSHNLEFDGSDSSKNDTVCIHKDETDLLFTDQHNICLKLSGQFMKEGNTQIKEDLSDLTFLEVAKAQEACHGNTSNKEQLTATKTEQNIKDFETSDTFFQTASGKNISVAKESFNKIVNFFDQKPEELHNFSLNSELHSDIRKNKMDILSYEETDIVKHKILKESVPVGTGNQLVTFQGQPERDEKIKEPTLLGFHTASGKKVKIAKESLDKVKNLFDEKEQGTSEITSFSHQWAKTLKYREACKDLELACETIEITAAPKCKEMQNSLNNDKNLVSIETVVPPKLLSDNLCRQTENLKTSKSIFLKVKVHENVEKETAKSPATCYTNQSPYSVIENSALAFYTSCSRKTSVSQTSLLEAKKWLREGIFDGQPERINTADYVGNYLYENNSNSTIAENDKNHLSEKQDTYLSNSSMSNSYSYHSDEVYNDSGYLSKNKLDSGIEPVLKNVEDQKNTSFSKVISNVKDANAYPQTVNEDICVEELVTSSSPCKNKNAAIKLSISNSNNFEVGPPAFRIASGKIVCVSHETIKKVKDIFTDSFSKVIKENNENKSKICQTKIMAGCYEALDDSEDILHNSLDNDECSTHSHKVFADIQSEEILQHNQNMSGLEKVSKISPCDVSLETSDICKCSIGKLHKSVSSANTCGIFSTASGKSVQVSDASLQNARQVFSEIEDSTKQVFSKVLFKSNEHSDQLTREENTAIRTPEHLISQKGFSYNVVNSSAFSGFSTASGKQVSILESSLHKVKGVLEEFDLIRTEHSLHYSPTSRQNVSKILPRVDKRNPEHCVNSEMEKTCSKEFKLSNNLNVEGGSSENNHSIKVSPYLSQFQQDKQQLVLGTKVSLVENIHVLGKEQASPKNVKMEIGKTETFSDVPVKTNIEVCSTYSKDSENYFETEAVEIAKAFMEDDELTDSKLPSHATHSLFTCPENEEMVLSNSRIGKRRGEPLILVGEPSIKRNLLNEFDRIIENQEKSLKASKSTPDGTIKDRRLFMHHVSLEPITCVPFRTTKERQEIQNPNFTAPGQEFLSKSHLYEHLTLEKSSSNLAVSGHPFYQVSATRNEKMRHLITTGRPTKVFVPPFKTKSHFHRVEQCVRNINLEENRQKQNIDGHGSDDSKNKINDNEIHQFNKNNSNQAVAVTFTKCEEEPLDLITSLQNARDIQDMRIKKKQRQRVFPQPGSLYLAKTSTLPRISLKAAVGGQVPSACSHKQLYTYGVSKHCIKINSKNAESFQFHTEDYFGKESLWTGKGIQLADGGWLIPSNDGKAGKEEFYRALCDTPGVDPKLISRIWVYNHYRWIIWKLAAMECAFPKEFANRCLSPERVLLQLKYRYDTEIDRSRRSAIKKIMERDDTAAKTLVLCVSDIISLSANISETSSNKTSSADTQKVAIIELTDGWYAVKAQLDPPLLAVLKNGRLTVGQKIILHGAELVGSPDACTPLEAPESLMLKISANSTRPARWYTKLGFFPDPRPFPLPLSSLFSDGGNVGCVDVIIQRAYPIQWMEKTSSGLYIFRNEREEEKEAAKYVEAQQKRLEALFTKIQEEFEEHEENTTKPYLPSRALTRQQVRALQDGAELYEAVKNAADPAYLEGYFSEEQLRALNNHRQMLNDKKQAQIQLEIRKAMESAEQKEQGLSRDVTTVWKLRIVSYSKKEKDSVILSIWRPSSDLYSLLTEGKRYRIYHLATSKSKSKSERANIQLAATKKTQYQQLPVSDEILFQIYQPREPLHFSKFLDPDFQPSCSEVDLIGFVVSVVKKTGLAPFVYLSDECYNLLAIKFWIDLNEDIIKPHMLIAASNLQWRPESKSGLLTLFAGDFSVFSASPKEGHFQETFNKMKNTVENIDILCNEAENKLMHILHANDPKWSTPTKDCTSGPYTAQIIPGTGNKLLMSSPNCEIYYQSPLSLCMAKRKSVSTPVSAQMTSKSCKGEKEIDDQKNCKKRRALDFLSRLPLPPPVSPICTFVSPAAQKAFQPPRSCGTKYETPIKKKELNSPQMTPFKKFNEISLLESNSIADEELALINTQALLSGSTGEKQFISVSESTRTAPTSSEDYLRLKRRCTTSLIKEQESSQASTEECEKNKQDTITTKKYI

B1: His-tagged full-length LIC2 (natural protein, human, UniProt O43237 1-492, looked up)
chain: MAPVGVEKKLLLGPNGPAVAAAGDLTSEEEEGQSLWSSILSEVSTRARSKLPSGKNILVFGEDGSGKTTLMTKLQGAEHGKKGRGLEYLYLSVHDEDRDDHTRCNVWILDGDLYHKGLLKFAVSAESLPETLVIFVADMSRPWTVMESLQKWASVLREHIDKMKIPPEKMRELERKFVKDFQDYMEPEEGCQGSPQRRGPLTSGSDEENVALPLGDNVLTHNLGIPVLVVCTKCDAVSVLEKEHDYRDEHLDFIQSHLRRFCLQYGAALIYTSVKEEKNLDLLYKYIVHKTYGFHFTTPALVVEKDAVFIPAGWDNEKKIAILHENFTTVKPEDAYEDFIVKPPVRKLVHDKELAAEDEQVFLMKQQSLLAKQPATPTRASESPARGPSGSPRTQGRGGPASVPSSSPGTSVKKPDPNIKNNAASEGVLASFFNSLLSKKTGSPGSPGAGGVQSTAKKSGQKTVLSNVQEELDRMTRKPDSMVTNSSTENEA
B1: the binding result is recorded as “binds”.
